From patent US20220387487A1, “COMPOSITIONS AND METHODS FOR TREATMENT OF CANCER” (Aleta Biotherapeutics Inc., priority 2019, published 2022)

B1: W62T/F64M/F66S: CD19 variant (protein)
chain: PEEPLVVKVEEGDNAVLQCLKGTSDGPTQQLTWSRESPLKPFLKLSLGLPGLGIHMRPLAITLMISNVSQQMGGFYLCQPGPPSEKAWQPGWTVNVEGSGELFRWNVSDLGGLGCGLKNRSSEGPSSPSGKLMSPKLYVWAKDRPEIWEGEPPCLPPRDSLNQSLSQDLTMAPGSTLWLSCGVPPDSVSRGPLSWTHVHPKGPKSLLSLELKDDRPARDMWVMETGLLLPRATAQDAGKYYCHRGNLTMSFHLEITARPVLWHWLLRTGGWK
B2: E224G/G226R/L228I: CD19 variant (protein)
chain: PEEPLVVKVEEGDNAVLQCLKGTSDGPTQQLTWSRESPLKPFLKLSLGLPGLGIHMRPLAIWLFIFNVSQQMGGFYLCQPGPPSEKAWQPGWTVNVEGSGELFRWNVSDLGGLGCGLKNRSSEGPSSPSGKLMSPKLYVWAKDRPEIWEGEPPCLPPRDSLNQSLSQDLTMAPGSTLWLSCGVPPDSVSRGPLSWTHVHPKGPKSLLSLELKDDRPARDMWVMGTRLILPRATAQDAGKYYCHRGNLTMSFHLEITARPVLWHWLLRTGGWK
B3: W62D/F64V/F66S: CD19 variant (protein)
chain: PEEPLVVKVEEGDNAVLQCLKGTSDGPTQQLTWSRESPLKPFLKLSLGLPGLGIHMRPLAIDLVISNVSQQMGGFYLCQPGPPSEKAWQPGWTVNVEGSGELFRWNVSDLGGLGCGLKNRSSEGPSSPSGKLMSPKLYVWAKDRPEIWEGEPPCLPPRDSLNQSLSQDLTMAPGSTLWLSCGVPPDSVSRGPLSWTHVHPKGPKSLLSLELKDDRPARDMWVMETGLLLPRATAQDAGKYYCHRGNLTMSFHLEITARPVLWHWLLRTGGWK
B4: E224G/G226A/L228V: CD19 variant (protein)
chain: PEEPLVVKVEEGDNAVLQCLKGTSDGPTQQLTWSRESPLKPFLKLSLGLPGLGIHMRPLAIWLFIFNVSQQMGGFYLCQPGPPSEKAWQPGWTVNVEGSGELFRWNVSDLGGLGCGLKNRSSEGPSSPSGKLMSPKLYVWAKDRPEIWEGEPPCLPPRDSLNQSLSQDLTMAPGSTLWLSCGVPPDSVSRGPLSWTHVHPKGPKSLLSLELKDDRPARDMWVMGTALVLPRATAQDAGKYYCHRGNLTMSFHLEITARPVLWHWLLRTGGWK
B5: E224G/G226G/L228I: CD19 variant (protein)
chain: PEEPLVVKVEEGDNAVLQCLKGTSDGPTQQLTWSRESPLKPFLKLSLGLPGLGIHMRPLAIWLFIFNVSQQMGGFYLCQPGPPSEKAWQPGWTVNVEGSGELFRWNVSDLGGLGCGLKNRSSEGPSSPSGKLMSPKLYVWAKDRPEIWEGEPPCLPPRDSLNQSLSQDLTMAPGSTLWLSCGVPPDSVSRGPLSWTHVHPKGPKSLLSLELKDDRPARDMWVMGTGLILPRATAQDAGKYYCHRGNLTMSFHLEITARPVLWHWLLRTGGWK
B6: E224G/G226S/L228V: CD19 variant (protein)
chain: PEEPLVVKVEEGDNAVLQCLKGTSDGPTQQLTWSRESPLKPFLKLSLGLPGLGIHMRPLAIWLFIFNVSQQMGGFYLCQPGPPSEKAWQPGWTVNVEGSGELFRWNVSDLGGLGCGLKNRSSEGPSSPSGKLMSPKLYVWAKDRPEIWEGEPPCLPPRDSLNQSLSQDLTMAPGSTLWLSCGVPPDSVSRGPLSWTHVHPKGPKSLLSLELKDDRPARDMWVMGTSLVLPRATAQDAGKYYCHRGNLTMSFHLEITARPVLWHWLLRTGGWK
B7: W62S/F64F/F66N: CD19 variant (protein)
chain: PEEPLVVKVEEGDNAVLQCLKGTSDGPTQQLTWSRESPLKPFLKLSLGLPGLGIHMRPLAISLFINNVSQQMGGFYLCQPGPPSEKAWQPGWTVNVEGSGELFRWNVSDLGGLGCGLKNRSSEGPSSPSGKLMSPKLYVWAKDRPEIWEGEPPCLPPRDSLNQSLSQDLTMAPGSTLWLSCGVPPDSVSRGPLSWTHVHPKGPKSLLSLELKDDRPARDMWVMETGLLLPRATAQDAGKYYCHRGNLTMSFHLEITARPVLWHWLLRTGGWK
B8: W62W/F64T/F66A: CD19 variant (protein)
chain: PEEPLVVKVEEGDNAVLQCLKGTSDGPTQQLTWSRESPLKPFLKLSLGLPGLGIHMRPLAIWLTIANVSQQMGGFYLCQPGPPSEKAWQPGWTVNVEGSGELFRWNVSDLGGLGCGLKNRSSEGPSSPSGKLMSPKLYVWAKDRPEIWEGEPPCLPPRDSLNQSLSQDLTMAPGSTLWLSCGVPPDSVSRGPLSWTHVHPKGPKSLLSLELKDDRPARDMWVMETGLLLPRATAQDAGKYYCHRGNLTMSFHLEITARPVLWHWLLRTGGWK
B9: L59N/I61I/L63I: CD19 variant (protein)
chain: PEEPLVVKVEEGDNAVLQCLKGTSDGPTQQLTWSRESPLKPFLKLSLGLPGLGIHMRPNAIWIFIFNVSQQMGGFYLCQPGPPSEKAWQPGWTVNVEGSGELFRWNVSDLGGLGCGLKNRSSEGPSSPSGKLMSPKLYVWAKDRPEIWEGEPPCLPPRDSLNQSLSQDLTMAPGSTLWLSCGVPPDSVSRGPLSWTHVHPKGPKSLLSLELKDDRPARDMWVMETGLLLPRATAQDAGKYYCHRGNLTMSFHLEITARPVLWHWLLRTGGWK
B10: W62N/F64L/F66P: CD19 variant (protein)
chain: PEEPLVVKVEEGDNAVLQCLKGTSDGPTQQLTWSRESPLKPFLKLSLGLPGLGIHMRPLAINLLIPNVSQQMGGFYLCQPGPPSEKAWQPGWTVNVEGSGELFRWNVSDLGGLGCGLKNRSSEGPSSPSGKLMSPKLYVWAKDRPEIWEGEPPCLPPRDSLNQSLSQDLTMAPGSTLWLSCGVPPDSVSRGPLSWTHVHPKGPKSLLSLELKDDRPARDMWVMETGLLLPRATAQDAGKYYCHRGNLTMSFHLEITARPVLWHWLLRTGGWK
B11: W62G/F64V/F66R: CD19 variant (protein)
chain: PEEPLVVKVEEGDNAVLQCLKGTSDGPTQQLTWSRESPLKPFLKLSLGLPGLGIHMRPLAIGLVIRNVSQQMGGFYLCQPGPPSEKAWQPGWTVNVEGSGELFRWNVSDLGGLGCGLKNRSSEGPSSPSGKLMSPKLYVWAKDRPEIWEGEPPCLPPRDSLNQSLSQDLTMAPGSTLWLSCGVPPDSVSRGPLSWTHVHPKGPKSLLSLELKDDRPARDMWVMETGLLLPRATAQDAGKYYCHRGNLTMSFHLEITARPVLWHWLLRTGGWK
B12: W62S/F64V/F66S: CD19 variant (protein)
chain: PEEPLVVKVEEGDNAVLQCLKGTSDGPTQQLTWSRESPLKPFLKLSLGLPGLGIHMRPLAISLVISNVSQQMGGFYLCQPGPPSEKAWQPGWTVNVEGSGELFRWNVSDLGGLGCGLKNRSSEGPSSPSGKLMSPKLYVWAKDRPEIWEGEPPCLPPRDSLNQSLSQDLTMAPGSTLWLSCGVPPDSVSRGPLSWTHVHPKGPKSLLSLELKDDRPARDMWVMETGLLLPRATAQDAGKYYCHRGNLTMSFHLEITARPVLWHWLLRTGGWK
B13: W62S/F64R/F66R: CD19 variant (protein)
chain: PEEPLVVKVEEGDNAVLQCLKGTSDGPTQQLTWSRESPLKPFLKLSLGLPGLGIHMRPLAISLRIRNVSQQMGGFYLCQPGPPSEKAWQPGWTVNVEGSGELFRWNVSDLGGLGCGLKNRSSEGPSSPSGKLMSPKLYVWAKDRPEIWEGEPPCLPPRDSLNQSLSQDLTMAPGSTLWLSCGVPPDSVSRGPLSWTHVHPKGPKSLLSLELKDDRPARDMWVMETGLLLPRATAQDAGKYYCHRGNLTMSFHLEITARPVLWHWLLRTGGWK
B14: W62G/F64V/F66K: CD19 variant (protein)
chain: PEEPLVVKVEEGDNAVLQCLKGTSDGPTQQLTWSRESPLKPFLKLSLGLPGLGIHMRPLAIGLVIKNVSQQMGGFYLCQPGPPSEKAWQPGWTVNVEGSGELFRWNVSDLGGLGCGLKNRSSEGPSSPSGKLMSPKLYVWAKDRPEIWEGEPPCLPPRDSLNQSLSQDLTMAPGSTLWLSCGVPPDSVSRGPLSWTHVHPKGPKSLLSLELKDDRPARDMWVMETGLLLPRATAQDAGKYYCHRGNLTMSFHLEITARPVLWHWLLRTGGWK
B15: W62D/F64A/F66S: CD19 variant (protein)
chain: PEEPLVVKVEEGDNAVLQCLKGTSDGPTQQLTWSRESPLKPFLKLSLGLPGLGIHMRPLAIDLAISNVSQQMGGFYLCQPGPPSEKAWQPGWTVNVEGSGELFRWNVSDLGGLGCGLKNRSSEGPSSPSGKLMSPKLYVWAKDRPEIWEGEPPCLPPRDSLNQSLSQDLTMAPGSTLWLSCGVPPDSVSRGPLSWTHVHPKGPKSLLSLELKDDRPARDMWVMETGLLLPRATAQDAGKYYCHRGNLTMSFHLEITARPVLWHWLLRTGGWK
B16: W62S/F64V/F66R: CD19 variant (protein)
chain: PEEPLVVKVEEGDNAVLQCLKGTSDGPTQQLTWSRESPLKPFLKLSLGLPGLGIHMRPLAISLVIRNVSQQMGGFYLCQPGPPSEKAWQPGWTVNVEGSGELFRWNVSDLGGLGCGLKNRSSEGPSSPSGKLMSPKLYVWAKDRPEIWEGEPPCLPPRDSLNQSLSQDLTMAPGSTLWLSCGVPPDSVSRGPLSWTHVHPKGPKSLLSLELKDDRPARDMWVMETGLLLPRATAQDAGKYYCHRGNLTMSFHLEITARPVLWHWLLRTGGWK
B17: W62H/F64V/F66S: CD19 variant (protein)
chain: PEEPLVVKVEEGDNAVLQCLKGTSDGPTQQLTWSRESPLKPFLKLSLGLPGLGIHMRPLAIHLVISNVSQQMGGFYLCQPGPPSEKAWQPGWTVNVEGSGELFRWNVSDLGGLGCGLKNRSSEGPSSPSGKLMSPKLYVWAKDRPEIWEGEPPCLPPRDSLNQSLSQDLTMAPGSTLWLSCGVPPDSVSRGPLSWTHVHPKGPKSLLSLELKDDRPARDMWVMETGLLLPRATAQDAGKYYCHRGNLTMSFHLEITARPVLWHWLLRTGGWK

Test system: FMC63
Sequence (as listed by the source): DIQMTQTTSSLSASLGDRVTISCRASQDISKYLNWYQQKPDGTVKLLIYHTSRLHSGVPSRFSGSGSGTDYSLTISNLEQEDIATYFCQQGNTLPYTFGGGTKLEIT
Sequence (as listed by the source): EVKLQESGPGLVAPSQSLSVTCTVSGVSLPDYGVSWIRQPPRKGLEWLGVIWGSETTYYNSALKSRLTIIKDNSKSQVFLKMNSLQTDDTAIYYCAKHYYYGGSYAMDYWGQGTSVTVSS
Test: CD19 variant binding to anti-CD19 antibody FMC63 (score)
Conditions: Table 1B, CD19 triple mutants

Molecule | FMC63 Binding Score
B1 | 15.7 ± 5.6
B2 | 12. ± 2.
B3 | 13.3 ± 3.2
B4 | 10.8 ± .8
B5 | 11.2 ± 1.2
B6 | 11.2 ± 1.1
B7 | 15.6 ± 5.6
B8 | 13.9 ± 4.
B9 | 15.6 ± 5.6
B10 | 15.6 ± 5.6
B11 | 14.1 ± 1.9
B12 | 15.4 ± 2.8
B13 | 13.7 ± 1.9
B14 | 12.3 ± 2.3
B15 | 15.5 ± 5.6
B16 | 11.8 ± 1.7
B17 | 14. ± 4.
